In one experiment the target is T1, MEPDRKAAVSH
T1 construct: C-terminal truncation; also called β-catenin aa 14-24
T1 peptide: MEPDRKAAVSH
The experiment can be described thus: truncated peptides of β-catenin aa 14-27 on OVA-microspheres, biotinylated BC2-Nb, streptavidin-PE. From the text: (§1) As negative controls, microspheres comprising Ovalbumin and the Myc-peptide ([…]) covalently coupled to OVA-microspheres were used. […] Evaluation of the PE-signals were done in a Flexmap 3D (Luminex).

A further experiment has as its target T2, DRKAAVSHWQQ
T2 construct: N-terminal truncation; also called β-catenin aa 17-27
T2 peptide: DRKAAVSHWQQ
The description is as above.
Description: as §1

For a further experiment, the target named is T3, MEPDRKAAVSHWQQ
T3 construct: full-length peptide of both truncation series; also called β-catenin aa 14-27
T3 peptide: MEPDRKAAVSHWQQ
The experiment is described as above.
Description: as §1

Another experiment addresses T4, KAAVSHWQQ
T4 construct: N-terminal truncation; also called β-catenin aa 19-27
T4 peptide: KAAVSHWQQ
The experiment is described as above.
Description: as §1

The target of a further experiment is T5, RKAAVSHWQQ
T5 construct: N-terminal truncation; also called β-catenin aa 18-27
T5 peptide: RKAAVSHWQQ
The experiment is described as above.
Description: as §1

The next experiment has as its target T6, MEPDRKAAVSHWQ
T6 construct: C-terminal truncation; also called β-catenin aa 14-26
T6 peptide: MEPDRKAAVSHWQ
Described as above.
Description: as §1

Another experiment concerns the target T7, MEPDRKAAVS
T7 construct: C-terminal truncation; also called β-catenin aa 14-23
T7 peptide: MEPDRKAAVS
Described as above.
Description: as §1

For the next experiment, the target named is T8, EPDRKAAVSHWQQ
T8 construct: N-terminal truncation; also called β-catenin aa 15-27
T8 peptide: EPDRKAAVSHWQQ
The description is as above.
Description: as §1

The target of the next experiment is T9, AAVSHWQQ
T9 construct: N-terminal truncation; also called β-catenin aa 20-27
T9 peptide: AAVSHWQQ
The experiment is described as above.
Description: as §1

A further experiment concerns the target T10, MEPDRKAAVSHW
T10 construct: C-terminal truncation; also called β-catenin aa 14-25
T10 peptide: MEPDRKAAVSHW
The description is as above.
Description: as §1

Experiment [1] addresses T11, eGFP-PCNA with C-terminal BC2 tag (eGFP-PCNABC2T) (human, UniProt P12004 1-261).
T11 construct: Expressed in HEK293T or HeLa cells; not shown: eGFP
Put plainly: immunoprecipitation from HEK293T lysate, immunoblot with anti-PCNA. How it is done: (§2) HEK293T cells transiently expressing eGFP, eGFPBC2T or BC2TeGFP, eGFP-PCNA, eGFP-PCNABC2T, mCherry-Vimentin, mCherry-VimentinBC2T were washed and harvested in phosphate buffered saline (PBS), snap-frozen in liquid nitrogen and stored at −20° C. Cell pellets were homogenized in 200 μl lysis buffer (10 mM Tris/Cl pH 7.5, 150 mM NaCl, 0.5% NP40, 1 μg DNaseI, 2 mM MgCl₂, 2 mM PMSF, 1× protease inhibitor mix M (Serva) by repeated pipetting for 40 min on ice. After a centrifugation step (10 min at 18.000×g) the protein concentration of each lysate was determined using a Pierce BCA Protein Assay Kit (Thermo Fisher Scientific) according to manufacturer's protocol and the protein solutions were adjusted with dilution buffer (10 mM Tris/Cl pH 7.5, 150 mM NaCl, 2 mM PMSF) to a concentration of 1 mg/ml. 2% of the supernatant were added to SDS-containing sample buffer (referred to as input). […] After a centrifugation step (2 min, 2500×g) the precleared supernatant was transferred to a new cup. 2% were added to SDS-containing sample buffer (referred to as non-bound). […] Samples were analyzed by SDS-PAGE followed by immunoblotting. Immunoblots were probed with indicated antibodies.
On the technique in general: In western blotting, separated proteins are transferred to a membrane and probed.

In experiment [2] the target is T12, mCherry-Vimentin (untagged) (UniProt P08670 1-466).
T12 construct: Control without the BC2 tag; not shown: mCherry fluorescent protein
T12 sequence (P08670 whole entry): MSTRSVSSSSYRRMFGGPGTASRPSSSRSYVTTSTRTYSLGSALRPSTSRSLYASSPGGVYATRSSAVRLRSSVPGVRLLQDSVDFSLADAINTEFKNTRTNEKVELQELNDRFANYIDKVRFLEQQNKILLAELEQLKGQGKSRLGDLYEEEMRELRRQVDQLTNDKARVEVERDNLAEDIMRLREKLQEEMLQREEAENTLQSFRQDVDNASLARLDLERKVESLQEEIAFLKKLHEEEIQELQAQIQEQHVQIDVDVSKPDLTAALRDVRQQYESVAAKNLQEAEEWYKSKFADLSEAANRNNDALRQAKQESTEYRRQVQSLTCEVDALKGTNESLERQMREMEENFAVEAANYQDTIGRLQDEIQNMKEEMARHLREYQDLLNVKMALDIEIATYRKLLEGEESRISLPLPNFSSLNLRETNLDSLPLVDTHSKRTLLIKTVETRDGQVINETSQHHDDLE
Put plainly: immunoprecipitation from HEK293T lysate with the BC2 nanotrap, immunoblot with anti-vimentin. How it is done: as §2

Experiment [3] addresses T13, BC2T W10M peptide (BC2TW10X library) (human).
T13 construct: also called W10 permutant M
T13 peptide: Ac-PDRKAAVSHMQQ-NH2
The experiment can be described thus: BC2TW10X library pulldown with immobilized Nb, LC-MS of the supernatant. How it is done:
(§3) To investigate the binding specificity of the BC2T and derived mutants peptide libraries for each amino acid position of the sequence […] (SEQ ID NO:4) were synthesized with acetyl and amide groups located at the N-termini or C-termini respectively (Intavis). […] Incubations were performed in 300 μl PBS/0.01% CHAPS for 1 h on a HulaMixer (Life Technologies). Subsequent to a centrifugation step 10 μl supernatant were analyzed in a LC-MS procedure. Peptides were separated using an UltiMate3000 RSLCnano System (Thermo Scientific), composed of a C18 PepMap100μ-Precolumn (300 μm×5 mm; particle size: 5 μm; pore size: 100 Å—Thermo Scientific) and a C18 analytical column (Acclaim Rapid Separation LC (RSLC) Column: 150 mm×5 mm; particle size: 2.2 μm; pore size: 100 Å—Thermo Scientific). A step gradient was applied starting at 8% and ending after 20 min at 30% eluent B (80% acetonitrile, 20% H₂O, 0.1% formic acid). Peptides were analyzed using a FULL-MS-strategy detected by a Q Exactive Plus mass spectrometer (Thermo Scientific). As maximal injection time 100 ms was chosen while setting the AGC target to 3E6. The resolution was set to 70.000. Half-maximal signal areas were referenced to control precipitation approaches using a GFP-specific nanobody immobilized on agarose beads. All experiments were done in triplicates.

Experiment [4] addresses T14, BC2T W10P peptide (BC2TW10X library) (human).
T14 construct: also called W10 permutant P
T14 peptide: Ac-PDRKAAVSHPQQ-NH2
The experiment is described as above. How it is done:
as §3

The target in experiment [5] is T15, BC2T W10V peptide (BC2TW10X library) (human).
T15 construct: also called W10 permutant V
T15 peptide: Ac-PDRKAAVSHVQQ-NH2
The description is as above. The procedure: as §3

T11 sequence (P12004 other isoform, or with tags, fused parts or gaps limits assumed): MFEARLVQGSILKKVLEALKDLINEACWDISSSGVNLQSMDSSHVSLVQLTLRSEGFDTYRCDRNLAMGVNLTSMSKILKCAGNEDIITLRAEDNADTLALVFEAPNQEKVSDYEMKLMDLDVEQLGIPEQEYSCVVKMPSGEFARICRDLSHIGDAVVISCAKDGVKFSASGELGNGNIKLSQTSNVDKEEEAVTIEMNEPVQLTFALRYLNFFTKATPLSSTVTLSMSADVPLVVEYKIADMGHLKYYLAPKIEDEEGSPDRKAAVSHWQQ

B1: BC2 nanobody (VHH)
VHH: QVQLVESGGGLVQPGGSLTLSCTASGFTLDHYDIGWFRQAPGKEREGVSCINNSDDDTYYADSVKGRFTIFMDNAKDTVYLQMNSLKPEDTAIYYCAEARGCKRGRYEYDFWGQGTQVTVSS
notes: Alpaca VHH, 122 aa; also called BC2-Nb; BC2 nanotrap (BC2-Nb immobilized on agarose/Sepharose beads); not shown: C-terminal 6xHis-tag added by the pHEN6 vector
B1: the binding result with MEPDRKAAVSH was “no binding (tested: 1 µg/ml BC2-Nb)”; in the experiment with DRKAAVSHWQQ, “binds”; in the experiment with MEPDRKAAVSHWQQ, “binds”; with KAAVSHWQQ, “no binding (tested: 1 µg/ml BC2-Nb)”; with RKAAVSHWQQ, “binds”; in the experiment with MEPDRKAAVSHWQ, “binds”. Also, the binding result in the experiment with MEPDRKAAVS is “no binding (tested: 1 µg/ml BC2-Nb)”; with EPDRKAAVSHWQQ it was “binds”; with AAVSHWQQ, “no binding (tested: 1 µg/ml BC2-Nb)”; with MEPDRKAAVSHW, “binds”; in [1] it was “binds”; in experiment [2], “no binding”. Moreover, the binding result in [3], in experiment [4] and in experiment [5] was “no binding” in each case.

The values are drawn from patent publication US20170137467A1 (CHROMOTEK, published 2017).
